We go through 2 molecules from patent US11667697 (VANDERBILT UNIVERSITY, dated 2023).

Test [1] addresses T1, VACV B5 protein (vaccinia virus, UniProt Q01227 20-275). Put plainly: purified antigen ELISA. For orientation: An ELISA detects its analyte on a solid surface through an enzyme-linked reagent.
Test [2] deals with VARV ortholog of B5 (variola virus). The test is described as follows: purified antigen ELISA.
For test [3], the target named is T1, VACV B5 protein. Put plainly: lysate ELISA.
Test [4] concerns the target CPXV ortholog of B5 (cowpox virus). The test is described as follows: lysate ELISA.
Test [5] has as its target MPXV ortholog of B5 (monkeypox virus). The test is described as follows: lysate ELISA.
The target in test [6] is T1, VACV B5 protein. Put plainly: cell-based or functional assay.
The target in test [7] is CPXV ortholog of B5 (cowpox virus). Put plainly: cell-based or functional assay.
Test [8] has as its target T2, VACV L1 protein (vaccinia virus, UniProt P07612 1-185).
T2 sequence: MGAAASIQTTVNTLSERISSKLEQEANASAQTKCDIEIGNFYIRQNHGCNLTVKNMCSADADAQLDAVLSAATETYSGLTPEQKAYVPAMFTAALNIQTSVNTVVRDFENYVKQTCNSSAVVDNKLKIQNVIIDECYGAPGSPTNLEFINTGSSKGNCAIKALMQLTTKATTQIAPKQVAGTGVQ
The test is described as follows: purified antigen ELISA.

Test [9] concerns the target T2, VACV L1 protein. Put plainly: lysate ELISA.
Test [10] has as its target T2, VACV L1 protein. Put plainly: cell-based or functional assay.

B1: MPXV-92 (antibody)
chain 1: QVQLVESGPGLVKPSGTLSLTCAVSGGSISSSNWWSWVRQPPGKGLEWIGEIYHSGSTNYTPSLKSRVTISLDKSKNQFSLKLSSVTAADTAMYYCARNFYPGYLQYWGQGTLVTVSS
chain 2: QSALTQPASVSGSPGQSITISCTGTISDVGGYNYVSWYQQHPGKAPKLMIYDVNKRPSGVSNRFSGSKSGNT
On to B1, for which the 50% effective concentration (EC50) amounted to 0.7 µg/mL in test [1]; 1.2 µg/mL in test [2]; 0.064 µg/mL in test [3]; 0.014 µg/mL in test [4]; 0.046 µg/mL in test [5]. For the same molecule, the “PRNT Emax, VACV EV+C'” value in test [6] was 86%. In addition, the “PRNT IC50, VACV EV+C'” value in test [6] was 0.08 µg/mL. Moreover, in [7], the “PRNT IC50, CPXV EV+C'” value came out at 0.5 µg/mL.

B2: MPXV-87 (antibody, V domains shown)
V domain 1: QVQLVQSGAEVKKPGASVKVSCKASGYTFTSHGIIWVRQAPGQGLEWMGWISVYNDNTNSAQKFQDRVTMTTATSTSTAYMELRSLRSDDTAVYYCARSSSGPRYYYYGMDVWGQGTTSP
V domain 2: QSVVTQPPSVSGAPGQRVTISCTGSSSNIGAGYAVHWYYQLPGIAPKLLIFGNNNRPSGVPDRFSGSKSGTSASLAITGLQAEDEADYYCQSYDSSLSGWVFGGGTQVTVL
notes: human IgG1, anti-L1
Regarding B2, it took 0.3 µg/mL to reach a half-maximal effect in [8] (EC50). The molecule further came in with a 50% effective concentration (EC50) in test [9] of 0.01 µg/mL. For the same molecule, in test [10], the “PRNT Emax, VACV MV” value turned out to be 61%; the “PRNT Emax, VACV MV+C'” value is 72%; the “PRNT IC50, VACV MV” value was determined as 5 µg/mL; the “PRNT IC50, VACV MV+C'” value amounted to 0.8 µg/mL.

A word on the EC50: it is the concentration needed to bring the measured effect to its halfway point. Read a low EC50 as higher potency in that assay.
